Experimental data taken from article PMC12770486.

Legend:
RAD51 [1] = biological target: T1, RAD51 (Homo sapiens, UniProt Q06609 1-339); experiment: FLIM
RAD51 [2] = biological target: T1, RAD51; experiment: BLI

T1 sequence (Q06609 whole entry): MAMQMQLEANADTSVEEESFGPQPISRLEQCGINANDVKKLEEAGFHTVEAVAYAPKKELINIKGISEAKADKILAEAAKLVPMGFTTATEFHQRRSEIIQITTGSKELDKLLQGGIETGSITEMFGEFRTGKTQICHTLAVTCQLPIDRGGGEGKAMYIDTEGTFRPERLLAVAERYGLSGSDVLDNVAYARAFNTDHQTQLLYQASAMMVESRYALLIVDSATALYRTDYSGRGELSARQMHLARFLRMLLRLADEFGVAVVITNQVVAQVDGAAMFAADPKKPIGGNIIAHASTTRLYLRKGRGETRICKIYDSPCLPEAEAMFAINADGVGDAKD

## GGGGCGGGGCGGGGC (ssDNA, locked bases at both ends stated for in-cell assays; unclear for FLIM) [Apt1 Texas Red]
RAD51 [1]
  binding result: binds

## GCCCCGCCCCGCCCC (ssDNA, locked bases at both ends stated for in-cell assays; unclear for FLIM) [rcApt Texas Red]
RAD51 [1]
  binding result: no binding

## CGGGCGGGCGGG (ssDNA) [Apt5]
RAD51 [2]
  Kd: 936 ± 39 nM

## GGGGCGGGGCGGGGC (ssDNA) [Apt1]
RAD51 [2]
  Kd: 116 ± 14 nM

## CGGCGCGGCGCGGCG (ssDNA) [Apt3]
RAD51 [2]
  Kd: 188 ± 13 nM

## GGGGGGGGGGGGGGG (ssDNA) [Apt2]
RAD51 [2]
  Kd: 138 ± 4 nM

## GCCCCGCCCCGCCCC (ssDNA) [rcApt]
RAD51 [2]
  binding result: no binding

## GCGGGGGCGGGG (ssDNA) [Apt4]
RAD51 [2]
  Kd: 413 ± 11 nM
